T1: human GIP receptor (human, UniProt P48546 22-466)
T1 construct: whole, on cells; also called hGIPR; hGIP-R
T1 sequence (looked up): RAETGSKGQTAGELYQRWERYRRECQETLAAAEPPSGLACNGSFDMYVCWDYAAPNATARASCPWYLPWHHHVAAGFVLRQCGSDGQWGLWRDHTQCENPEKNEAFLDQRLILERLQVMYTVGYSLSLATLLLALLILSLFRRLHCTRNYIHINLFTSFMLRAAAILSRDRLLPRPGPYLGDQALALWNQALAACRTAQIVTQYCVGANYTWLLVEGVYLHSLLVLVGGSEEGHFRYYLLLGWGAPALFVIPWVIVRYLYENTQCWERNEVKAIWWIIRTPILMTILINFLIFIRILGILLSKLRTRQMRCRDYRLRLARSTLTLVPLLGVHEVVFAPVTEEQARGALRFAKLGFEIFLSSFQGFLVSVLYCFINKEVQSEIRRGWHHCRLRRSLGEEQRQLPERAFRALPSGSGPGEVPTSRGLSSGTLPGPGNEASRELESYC

B1: Example 268 (peptide)
peptide: Y[Aib]EGTFTSDYSILLDEK([AEEA-AEEA-γGlu-C18 diacid])AQ[Aib]AFIEYLIEGGPSSG-NH2
modifications: N-terminus assumed
SMILES: CC[C@H](C)[C@H](NC(=O)[C@H](CC(C)C)NC(=O)[C@H](Cc1ccc(O)cc1)NC(=O)[C@H](CCC(=O)O)NC(=O)[C@@H](NC(=O)[C@H](Cc1ccccc1)NC(=O)[C@H](C)NC(=O)C(C)(C)NC(=O)[C@H](CCC(N)=O)NC(=O)[C@H](C)NC(=O)[C@H](CCCCNC(=O)COCCOCCNC(=O)COCCOCCNC(=O)CC[C@H](NC(=O)CCCCCCCCCCCCCCCCC(=O)O)C(=O)O)NC(=O)[C@H](CCC(=O)O)NC(=O)[C@H](CC(=O)O)NC(=O)[C@H](CC(C)C)NC(=O)[C@H](CC(C)C)NC(=O)[C@@H](NC(=O)[C@H](CO)NC(=O)[C@H](Cc1ccc(O)cc1)NC(=O)[C@H](CC(=O)O)NC(=O)[C@H](CO)NC(=O)[C@@H](NC(=O)[C@H](Cc1ccccc1)NC(=O)[C@@H](NC(=O)CNC(=O)[C@H](CCC(=O)O)NC(=O)C(C)(C)NC(=O)[C@@H](N)Cc1ccc(O)cc1)[C@@H](C)O)[C@@H](C)O)[C@@H](C)CC)[C@@H](C)CC)C(=O)N[C@@H](CCC(=O)O)C(=O)NCC(=O)NCC(=O)N1CCC[C@H]1C(=O)N[C@@H](CO)C(=O)N[C@@H](CO)C(=O)NCC(N)=O
B2: Example 270 (peptide)
peptide: Y[Aib]EGTFTSDYSILLDKK([AEEA-AEEA-γGlu-C18 diacid])AQ[Aib]EFIEYLIEGGPSSG-NH2
modifications: N-terminus assumed
SMILES: CC[C@H](C)[C@H](NC(=O)[C@H](CC(C)C)NC(=O)[C@H](Cc1ccc(O)cc1)NC(=O)[C@H](CCC(=O)O)NC(=O)[C@@H](NC(=O)[C@H](Cc1ccccc1)NC(=O)[C@H](CCC(=O)O)NC(=O)C(C)(C)NC(=O)[C@H](CCC(N)=O)NC(=O)[C@H](C)NC(=O)[C@H](CCCCNC(=O)COCCOCCNC(=O)COCCOCCNC(=O)CC[C@H](NC(=O)CCCCCCCCCCCCCCCCC(=O)O)C(=O)O)NC(=O)[C@H](CCCCN)NC(=O)[C@H](CC(=O)O)NC(=O)[C@H](CC(C)C)NC(=O)[C@H](CC(C)C)NC(=O)[C@@H](NC(=O)[C@H](CO)NC(=O)[C@H](Cc1ccc(O)cc1)NC(=O)[C@H](CC(=O)O)NC(=O)[C@H](CO)NC(=O)[C@@H](NC(=O)[C@H](Cc1ccccc1)NC(=O)[C@@H](NC(=O)CNC(=O)[C@H](CCC(=O)O)NC(=O)C(C)(C)NC(=O)[C@@H](N)Cc1ccc(O)cc1)[C@@H](C)O)[C@@H](C)O)[C@@H](C)CC)[C@@H](C)CC)C(=O)N[C@@H](CCC(=O)O)C(=O)NCC(=O)NCC(=O)N1CCC[C@H]1C(=O)N[C@@H](CO)C(=O)N[C@@H](CO)C(=O)NCC(N)=O
B3: Example 299 (peptide)
peptide: Y[Aib]EGTFTSDYSILLDKK([AEEA-AEEA-γGlu-C18 diacid])AQ[Aib]AFLEYLIEGGPSSG-NH2
modifications: N-terminus assumed
SMILES: CC[C@H](C)[C@H](NC(=O)[C@H](CC(C)C)NC(=O)[C@H](Cc1ccc(O)cc1)NC(=O)[C@H](CCC(=O)O)NC(=O)[C@H](CC(C)C)NC(=O)[C@H](Cc1ccccc1)NC(=O)[C@H](C)NC(=O)C(C)(C)NC(=O)[C@H](CCC(N)=O)NC(=O)[C@H](C)NC(=O)[C@H](CCCCNC(=O)COCCOCCNC(=O)COCCOCCNC(=O)CC[C@H](NC(=O)CCCCCCCCCCCCCCCCC(=O)O)C(=O)O)NC(=O)[C@H](CCCCN)NC(=O)[C@H](CC(=O)O)NC(=O)[C@H](CC(C)C)NC(=O)[C@H](CC(C)C)NC(=O)[C@@H](NC(=O)[C@H](CO)NC(=O)[C@H](Cc1ccc(O)cc1)NC(=O)[C@H](CC(=O)O)NC(=O)[C@H](CO)NC(=O)[C@@H](NC(=O)[C@H](Cc1ccccc1)NC(=O)[C@@H](NC(=O)CNC(=O)[C@H](CCC(=O)O)NC(=O)C(C)(C)NC(=O)[C@@H](N)Cc1ccc(O)cc1)[C@@H](C)O)[C@@H](C)O)[C@@H](C)CC)C(=O)N[C@@H](CCC(=O)O)C(=O)NCC(=O)NCC(=O)N1CCC[C@H]1C(=O)N[C@@H](CO)C(=O)N[C@@H](CO)C(=O)NCC(N)=O
B4: Example 320 (peptide)
peptide: Y[Aib]EGTFTSDYSILLDKK([AEEA-AEEA-γGlu-C18 diacid])AQ[Aib]DFIEYLIEGGPSSG-NH2
modifications: N-terminus assumed
SMILES: CC[C@H](C)[C@H](NC(=O)[C@H](CC(C)C)NC(=O)[C@H](Cc1ccc(O)cc1)NC(=O)[C@H](CCC(=O)O)NC(=O)[C@@H](NC(=O)[C@H](Cc1ccccc1)NC(=O)[C@H](CC(=O)O)NC(=O)C(C)(C)NC(=O)[C@H](CCC(N)=O)NC(=O)[C@H](C)NC(=O)[C@H](CCCCNC(=O)COCCOCCNC(=O)COCCOCCNC(=O)CC[C@H](NC(=O)CCCCCCCCCCCCCCCCC(=O)O)C(=O)O)NC(=O)[C@H](CCCCN)NC(=O)[C@H](CC(=O)O)NC(=O)[C@H](CC(C)C)NC(=O)[C@H](CC(C)C)NC(=O)[C@@H](NC(=O)[C@H](CO)NC(=O)[C@H](Cc1ccc(O)cc1)NC(=O)[C@H](CC(=O)O)NC(=O)[C@H](CO)NC(=O)[C@@H](NC(=O)[C@H](Cc1ccccc1)NC(=O)[C@@H](NC(=O)CNC(=O)[C@H](CCC(=O)O)NC(=O)C(C)(C)NC(=O)[C@@H](N)Cc1ccc(O)cc1)[C@@H](C)O)[C@@H](C)O)[C@@H](C)CC)[C@@H](C)CC)C(=O)N[C@@H](CCC(=O)O)C(=O)NCC(=O)NCC(=O)N1CCC[C@H]1C(=O)N[C@@H](CO)C(=O)N[C@@H](CO)C(=O)NCC(N)=O
B5: Example 298 (peptide)
peptide: Y[Aib]EGTFTSDYSILLDKK([AEEA-AEEA-γGlu-C18 diacid])AQ[Aib]AFVEYLIEGGPSSG-NH2
modifications: N-terminus assumed
SMILES: CC[C@H](C)[C@H](NC(=O)[C@H](CC(C)C)NC(=O)[C@H](Cc1ccc(O)cc1)NC(=O)[C@H](CCC(=O)O)NC(=O)[C@@H](NC(=O)[C@H](Cc1ccccc1)NC(=O)[C@H](C)NC(=O)C(C)(C)NC(=O)[C@H](CCC(N)=O)NC(=O)[C@H](C)NC(=O)[C@H](CCCCNC(=O)COCCOCCNC(=O)COCCOCCNC(=O)CC[C@H](NC(=O)CCCCCCCCCCCCCCCCC(=O)O)C(=O)O)NC(=O)[C@H](CCCCN)NC(=O)[C@H](CC(=O)O)NC(=O)[C@H](CC(C)C)NC(=O)[C@H](CC(C)C)NC(=O)[C@@H](NC(=O)[C@H](CO)NC(=O)[C@H](Cc1ccc(O)cc1)NC(=O)[C@H](CC(=O)O)NC(=O)[C@H](CO)NC(=O)[C@@H](NC(=O)[C@H](Cc1ccccc1)NC(=O)[C@@H](NC(=O)CNC(=O)[C@H](CCC(=O)O)NC(=O)C(C)(C)NC(=O)[C@@H](N)Cc1ccc(O)cc1)[C@@H](C)O)[C@@H](C)O)[C@@H](C)CC)C(C)C)C(=O)N[C@@H](CCC(=O)O)C(=O)NCC(=O)NCC(=O)N1CCC[C@H]1C(=O)N[C@@H](CO)C(=O)N[C@@H](CO)C(=O)NCC(N)=O
B6: Example 233 (peptide)
peptide: YXEGTXTSDXSIXLDXKAQXEFIXYLIEGGPSSGAPPPS
modifications: Aib2; αMeF(2F)6; 4Pal10; αMeL13; Dab16; K17((2-[2-(2-Amino-ethoxy)-ethoxy]-acetyl)2-(γ-Glu)-CO-(CH2)16-CO2H); Aib20; D-Glu24; C-terminal NH2
B7: Example 249 (peptide)
peptide: B6 peptide with X10Y
modifications: Aib2; αMeF(2F)6; Nle13; Orn16; K17((2-[2-(2-Amino-ethoxy)-ethoxy]-acetyl)2-(γ-Glu)-CO-(CH2)16-CO2H); Aib20; D-Glu24; C-terminal NH2
B8: Example 235 (peptide)
peptide: B6 peptide
modifications: Aib2; αMeF6; 4Pal10; αMeL13; Dab16; K17((2-[2-(2-Amino-ethoxy)-ethoxy]-acetyl)2-(γ-Glu)-CO-(CH2)16-CO2H); Aib20; D-Glu24; C-terminal NH2
B9: Example 248 (peptide)
peptide: B6 peptide with X10Y, X13L
modifications: Aib2; αMeF(2F)6; Orn16; K17((2-[2-(2-Amino-ethoxy)-ethoxy]-acetyl)2-(γ-Glu)-CO-(CH2)16-CO2H); Aib20; D-Glu24; C-terminal NH2
B10: Example 234 (peptide)
peptide: B6 peptide with X13L
modifications: Aib2; αMeF(2F)6; 4Pal10; Dab16; K17((2-[2-(2-Amino-ethoxy)-ethoxy]-acetyl)2-(γ-Glu)-CO-(CH2)16-CO2H); Aib20; D-Glu24; C-terminal NH2
B11: Example 237 (peptide)
peptide: B6 peptide with X10A, Y25X
modifications: Aib2; αMeF(2F)6; αMeL13; Orn16; K17((2-[2-(2-Amino-ethoxy)-ethoxy]-acetyl)2-(γ-Glu)-CO-(CH2)16-CO2H); Aib20; D-Glu24; αMeY25; C-terminal NH2
B12: Example 246 (peptide)
peptide: B6 peptide with X10A, E21A, Y25X
modifications: Aib2; αMeF(2F)6; αMeL13; Orn16; K17((2-[2-(2-Amino-ethoxy)-ethoxy]-acetyl)2-(γ-Glu)-CO-(CH2)16-CO2H); Aib20; D-Glu24; αMeY25; C-terminal NH2
B13: Example 253 (peptide)
peptide: YXEGTFTSDYSILLDKKAQAAFIEYLIEGGPSSGAPPPS
modifications: Aib2; K17((2-[2-(2-Amino-ethoxy)-ethoxy]-acetyl)2-(γ-Glu)-CO-(CH2)18-CO2H); C-terminal NH2

Residue numbers refer to the chain shown, from its start. Numbered stars: 1 amine (or outer) side, 2 acyl side, 3 side chain; on linkers, the order of the positions; unused ones are H or OH. Square brackets hold non-standard residues; d marks the D form. Side chains are listed from the residue outwards. Ends that are not written are not given here. * marks the point of attachment. C18 diacid = O=C(O)CCCCCCCCCCCCCCCCC(=O)*; γGlu = O=C(O)[C@H](CCC(=O)[*:2])N[*:1]; AEEA = NCCOCCOCC(=O)O; Aib = CC(C)(N)C(=O)O

The first assay concerns the target T2, human GLP-1 receptor (human, UniProt P43220 24-463).
T2 construct: whole, on cells; also called hGLP-1R; hGLP1R
The experiment in a line: [125I]-GLP-1 competition SPA, hGLP-1R membranes. As to the method: The binding buffer contains 25 mM HEPES, pH 7.4, 2.5 mM CaCl₂, 1 mM MgCl₂, 0.1% (w/v) bacitracin, 0.003% (w/v) TWEEN®-20, and Roche Complete™ Protease Inhibitors without EDTA.
(§1) Data are analyzed using four-parameter (curve maximum, curve minimum, IC₅₀, Hill slope) nonlinear regression routines (Genedata Screener, version 12.0.4, Genedata AG, Basal, Switzerland). […] Values for Kᵢ are reported as the geometric mean, with error expressed as the standard error of the mean (SEM) and n is equal to the number of independent replicates (determined in assays performed on different days). Geometric Means are calculated as follows: […]
On to B1, for which the affinity, expressed as Ki, was 3.98 nM.
As to B2, the affinity, expressed as Ki, was 8.27 nM.
Still for that read-out and setting: the same measure for B3: 54.3 nM.
On the same count and under the same terms, to B4 belongs 5.17 nM; to B5, 3.03 nM; to B6, 5.99 nM.
The same measure, in the same setting: the same measure for B7: 2.35 nM; for B8: 7.65 nM.
On to B9, for which the Ki (in general, the dissociation constant of the complex between target and ligand, obtained from inhibition or displacement) was found to be 2.4 nM.
On the same count and under the same terms, to B10 belongs 10.9 nM; to B11, 1.04 nM; to B12, 0.812 nM.
On the same count and under the same terms, to B13 belongs 2.57 nM.

Another assay concerns the target T1, human GIP receptor. The experiment in a line: [125I]-GIP competition SPA, hGIPR membranes. How it is done:
The binding buffer contains 25 mM HEPES, pH 7.4, 2.5 mM CaCl₂, 1 mM MgCl₂, 0.1% (w/v) bacitracin, 0.003% (w/v) TWEEN®-20, and Roche Complete™ Protease Inhibitors without EDTA. […] Plates are sealed and mixed on a plate shaker (setting 6) for 1 minute and read with a PerkinElmer Trilux MicroBeta® scintillation counter after 2.5 to 12 hours of incubation/settling time at room temperature.
as §1
For B1, the affinity corresponds to a Ki of 0.0814 nM.
The same measure, in the same setting: to B2 belongs 0.117 nM; to B3, 0.734 nM.
B4: the Ki was determined as 0.136 nM.
Still for that read-out and setting: to B5 belongs 0.0578 nM; to B6, 0.0445 nM.
On the same count and under the same terms, to B7 belongs 0.0394 nM.
On the same count and under the same terms, the same measure for B8: 0.0581 nM; for B9: 0.0397 nM.
As to B10, the affinity corresponds to a Ki of 0.0563 nM.
B11: the affinity, expressed as Ki, was 0.131 nM.
For B12, the Ki amounted to 0.0509 nM.
The molecule B13 had an inhibition constant Ki of 0.138 nM.

The record behind these values is patent US20200024322A1 (Eli Lilly, published 2020).
